Assay results: US20210047398A1, “ASPROSIN, A FAST-INDUCED GLUCOGENIC PROTEIN HORMONE” (Baylor College of Medicine, priority 2016, published 2021)

Columns and labels:
[1] = bacterially-generated version (Romere et al., 2016); cited from earlier work
[2] = Body composition, plasma parameters, histology, GTT and ITT in WT mice with increased circulating asprosin; type: in vivo
Protocol: Animals—10-week old male WT C57/Bl6 mice were used for all in vivo studies. […] Mice were injected with 2.6 micro molar recombinant His tagged Asprosin or recombinant GFP daily for 10 days via subcutaneous injection. Mice were sacrificed and plasma and various organs were isolated 10 days after viral infusion or peptide injection. The Baylor College of Medicine Institutional Animal Care and Utilization Committee approved all experiments.
Body composition and Serum analyses—Body composition was analyzed with the ECHO-MRI system (Echo medical systems, Texas). Mouse serum was prepared from blood obtained through cardiac puncture and analyzed with the COBAS Integra 400 plus analyzer (Roche). Plasma leptin, FFA, adiponectin and triglyceride levels were measured by using a Mouse Leptin ELISA Kit (Millipore), NEFA C Test Kit (Wako), Mouse Adiponectin ELISA Kit (Millipore) and Serum/plasma triglyceride detection kit (Sigma), respectively.
Histology—Mouse inguinal adipose tissue samples were fixed in 10% formaldehyde for H&E staining. Frozen livers were used for oil-red-O staining to evaluate hepatic triglyceride content.
Blood glucose levels were measured using a glucometer (Life Scan).

[3] = Plasma asprosin, glucose, insulin and hormones in mice after asprosin gain-of-function; type: in vivo
Protocol: Animals. […] MgR heterozygous mice were obtained from Jackson labs, and bred to obtain male MgR homozygous mice and WT littermates. 5-week-old male Ob/Ob mice were obtained from Jackson labs. […] For diet induced obesity studies, mice were placed on the adjusted calories diet providing 60% of calories from fat by Harlan-Teklad for 12 weeks. […] Mice were exposed to 30 μg recombinant His-tagged asprosin or recombinant Green Fluorescent Protein (GFP) daily for 10 days via subcutaneous injection. Mice were sacrificed and plasma and various organs were isolated 10 days after virus or peptide injection. For single dose injections, the same protocol was followed as that for daily injections, followed by collection of plasma at the indicated times via tail bleeds for insulin and glucose measurement. Insulin and glucose tolerance tests (ITT and GTT) were performed using standard procedures. […] For immunologic sequestration experiments, mice were injected intra-peritoneally with a 500 μg dose in saline of a custom-built (Thermo Scientific Inc.) anti-asprosin mouse monoclonal antibody directed against amino acids 106-134 (human profibrillin amino acids 2837-2865) or an equivalent dose of isotype matched IgG (Southern Biotech, Inc.). […] The Baylor College of Medicine Institutional Animal Care and Utilization Committee approved all experiments.
Plasma metabolic parameters. Human plasma insulin was measured using a human insulin ELISA kit by Abcam. Mouse plasma insulin was measured using a mouse insulin ELISA kit by Millipore. Mouse plasma glucagon, epinephrine, norepinephrine and corticosterone were measured by the Vanderbilt University Hormone Assay & Analytical Services Core.

[4] = tested on: mouse primary hepatocytes; assay: In vitro glucose production assay (media glucose accumulation); conditions: 2 hours, 0-1100 nM recombinant asprosin
Protocol: Cell Culture. Primary mouse hepatocytes were isolated from 8- to 12-week-old WT mice using standard methodology. […] The cells were treated with 50 nM recombinant asprosin or GFP for 10 minutes for cAMP and PKA assays and for 2 hours for the in vitro glucose production assay. Cells were pretreated with various inhibitors for 1 hour prior to treatment with asprosin, GFP, Glucagon or Epinephrine. cAMP was measured from cell lysates using the cAMP direct immunoassay kit from Cell Biolabs. PKA activity was measured from cell lysates using the PKA kinase activity kit from Enzo Lifesciences, Inc. Media glucose content was measured using the Glucose Colorimetric Assay Kit from Biovision. Results were normalized to protein content.

[5] = both experiments, 10 days, 4-hour fasted
[6] = 2 hours after single 30 μg dose

B1: recombinant asprosin: 146 amino acid E. coli expressed fusion protein: 6 amino acid N-terminal His tag and 140 amino acid wild type asprosin (FBN1 2732-2871) (protein)
chain: HHHHHHSTNETDASNIEDQSETEANVSLASWDVEKTAIFAFNISHVSNKVRILELLPALTTLTNHNRYLIESGNEDGFFKINQKEGISYLHFTKKKPVAGTYSLQISSTPLYKKKELNQLEDKYDKDYLSGELGDNLKMKIQVLLH
- plasma half-life [1]: ~20 min
- blood glucose in insulin tolerance test ([2]; 60 minute mark, GFP mice had severe hypoglycemia): maintained their blood glucose levels
- glucose and insulin tolerance tests ([2]; 10 days, FIGS. 5G-5J): consistent with a diabetogenic effect
- fat cell volume, inguinal white fat microscopy ([2]; both experiments (FBN1 adenovirus; daily subcutaneous asprosin), 10 days): larger fat cell volume
- plasma leptin and adiponectin [2, 5]: higher levels
- plasma triglycerides and free fatty acids [2, 5]: lower levels
- plasma glucose and insulin ([2]; fasted mice, 10 days, FIGS. 11A-11D): hyperglycemia and hyperinsulinemia
- fat mass (MRI) ([2]; ten days of daily subcutaneous injection, vs GFP injection): significant increase
- lean mass (MRI) ([2]; ten days of daily subcutaneous injection, same in GFP injected mice): slight but significant decrease
- plasma levels of catabolic hormones (glucagon, catecholamines, glucocorticoids) ([3]; 15-20 minutes after single 30 μg dose): no effect
- plasma insulin ([3]; 15 minute time-point after single dose, 2-hour fast): compensatory hyperinsulinemia
- glucose uptake in peripheral organs in glucose- and insulin-tolerance tests [3, 6]: little evidence of altered glucose uptake
- peak glucose levels in glucose- and insulin-tolerance tests [3, 6]: altered peak glucose levels
- glucose and insulin levels ([3]; 10 days of exposure, 2-hour fasted mice): elevated
- blood glucose levels after a single dose ([3]; single 30 μg subcutaneous dose, 2-hour preceding fast): immediate spike
- time to normalized blood glucose levels post injection ([3]; single dose, 2-hour fast): ≤ 60 min
- rate of the blood glucose spike ([3]; single dose, overnight preceding fast, otherwise similar results): somewhat slower
- insulin deficit of MgR mice ([3]; single subcutaneous administration, overnight fasted MgR mice): sufficient to completely rescue the insulin deficit
- media glucose concentration [4]: increase in glucose concentration in a dose-dependent manner
